T1: human GIP receptor (human, UniProt P48546 22-466)
T1 sequence: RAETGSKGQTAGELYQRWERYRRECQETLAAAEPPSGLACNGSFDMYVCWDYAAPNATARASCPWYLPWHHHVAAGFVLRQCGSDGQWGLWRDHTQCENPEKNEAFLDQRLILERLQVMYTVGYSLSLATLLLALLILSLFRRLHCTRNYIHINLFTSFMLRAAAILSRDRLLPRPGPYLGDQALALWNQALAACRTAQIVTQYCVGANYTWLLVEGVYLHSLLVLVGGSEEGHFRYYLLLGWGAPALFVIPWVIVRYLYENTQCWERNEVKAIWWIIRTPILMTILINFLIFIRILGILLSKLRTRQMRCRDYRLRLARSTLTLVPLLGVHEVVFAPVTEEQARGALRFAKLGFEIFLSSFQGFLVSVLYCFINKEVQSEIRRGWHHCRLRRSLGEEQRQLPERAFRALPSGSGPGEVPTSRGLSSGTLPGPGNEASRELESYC

B1: Compound 18 (peptide)
peptide: YAQGTFTSDYSIYLESKAAHDFVEWLLSA
HELM: PEPTIDE1{Y.[Aib].Q.G.T.F.T.S.D.Y.S.I.Y.L.E.S.K.A.A.H.D.F.V.E.W.L.L.S.A.[am]}$$$$V2.0
SMILES: CC[C@H](C)[C@H](NC(=O)[C@H](CO)NC(=O)[C@H](Cc1ccc(O)cc1)NC(=O)[C@H](CC(=O)O)NC(=O)[C@H](CO)NC(=O)[C@@H](NC(=O)[C@H](Cc1ccccc1)NC(=O)[C@@H](NC(=O)CNC(=O)[C@H](CCC(N)=O)NC(=O)C(C)(C)NC(=O)[C@@H](N)Cc1ccc(O)cc1)[C@@H](C)O)[C@@H](C)O)C(=O)N[C@@H](Cc1ccc(O)cc1)C(=O)N[C@@H](CC(C)C)C(=O)N[C@@H](CCC(=O)O)C(=O)N[C@@H](CO)C(=O)N[C@@H](CCCCN)C(=O)N[C@@H](C)C(=O)N[C@@H](C)C(=O)N[C@@H](Cc1c[nH]cn1)C(=O)N[C@@H](CC(=O)O)C(=O)N[C@@H](Cc1ccccc1)C(=O)N[C@H](C(=O)N[C@@H](CCC(=O)O)C(=O)N[C@@H](Cc1c[nH]c2ccccc12)C(=O)N[C@@H](CC(C)C)C(=O)N[C@@H](CC(C)C)C(=O)N[C@@H](CO)C(=O)N[C@@H](C)C(N)=O)C(C)C
B2: Compound 11 (peptide)
peptide: YAQGTFTSDYSIYLDSKAAHDFVNWLLSA
HELM: PEPTIDE1{Y.[Aib].Q.G.T.F.T.S.D.Y.S.I.Y.L.D.S.K.A.A.H.D.F.V.N.W.L.L.S.A.[am]}$$$$V2.0
SMILES: CC[C@H](C)[C@H](NC(=O)[C@H](CO)NC(=O)[C@H](Cc1ccc(O)cc1)NC(=O)[C@H](CC(=O)O)NC(=O)[C@H](CO)NC(=O)[C@@H](NC(=O)[C@H](Cc1ccccc1)NC(=O)[C@@H](NC(=O)CNC(=O)[C@H](CCC(N)=O)NC(=O)C(C)(C)NC(=O)[C@@H](N)Cc1ccc(O)cc1)[C@@H](C)O)[C@@H](C)O)C(=O)N[C@@H](Cc1ccc(O)cc1)C(=O)N[C@@H](CC(C)C)C(=O)N[C@@H](CC(=O)O)C(=O)N[C@@H](CO)C(=O)N[C@@H](CCCCN)C(=O)N[C@@H](C)C(=O)N[C@@H](C)C(=O)N[C@@H](Cc1c[nH]cn1)C(=O)N[C@@H](CC(=O)O)C(=O)N[C@@H](Cc1ccccc1)C(=O)N[C@H](C(=O)N[C@@H](CC(N)=O)C(=O)N[C@@H](Cc1c[nH]c2ccccc12)C(=O)N[C@@H](CC(C)C)C(=O)N[C@@H](CC(C)C)C(=O)N[C@@H](CO)C(=O)N[C@@H](C)C(N)=O)C(C)C
B3: Compound 13 (peptide)
peptide: YAQGTFTSDYSIYLDSKAAHDFVEWLLSAGPSSGAPPPS
HELM: PEPTIDE1{Y.[Aib].Q.G.T.F.T.S.D.Y.S.I.Y.L.D.S.K.A.A.H.D.F.V.E.W.L.L.S.A.G.P.S.S.G.A.P.P.P.S.[am]}$$$$V2.0
SMILES: CC[C@H](C)[C@H](NC(=O)[C@H](CO)NC(=O)[C@H](Cc1ccc(O)cc1)NC(=O)[C@H](CC(=O)O)NC(=O)[C@H](CO)NC(=O)[C@@H](NC(=O)[C@H](Cc1ccccc1)NC(=O)[C@@H](NC(=O)CNC(=O)[C@H](CCC(N)=O)NC(=O)C(C)(C)NC(=O)[C@@H](N)Cc1ccc(O)cc1)[C@@H](C)O)[C@@H](C)O)C(=O)N[C@@H](Cc1ccc(O)cc1)C(=O)N[C@@H](CC(C)C)C(=O)N[C@@H](CC(=O)O)C(=O)N[C@@H](CO)C(=O)N[C@@H](CCCCN)C(=O)N[C@@H](C)C(=O)N[C@@H](C)C(=O)N[C@@H](Cc1c[nH]cn1)C(=O)N[C@@H](CC(=O)O)C(=O)N[C@@H](Cc1ccccc1)C(=O)N[C@H](C(=O)N[C@@H](CCC(=O)O)C(=O)N[C@@H](Cc1c[nH]c2ccccc12)C(=O)N[C@@H](CC(C)C)C(=O)N[C@@H](CC(C)C)C(=O)N[C@@H](CO)C(=O)N[C@@H](C)C(=O)NCC(=O)N1CCC[C@H]1C(=O)N[C@@H](CO)C(=O)N[C@@H](CO)C(=O)NCC(=O)N[C@@H](C)C(=O)N1CCC[C@H]1C(=O)N1CCC[C@H]1C(=O)N1CCC[C@H]1C(=O)N[C@@H](CO)C(N)=O)C(C)C
B4: Compound 12 (peptide)
peptide: YAQGTFTSDYSIYLDSKAAHDFVEWLLRA
HELM: PEPTIDE1{Y.[Aib].Q.G.T.F.T.S.D.Y.S.I.Y.L.D.S.K.A.A.H.D.F.V.E.W.L.L.R.A.[am]}$$$$V2.0
SMILES: CC[C@H](C)[C@H](NC(=O)[C@H](CO)NC(=O)[C@H](Cc1ccc(O)cc1)NC(=O)[C@H](CC(=O)O)NC(=O)[C@H](CO)NC(=O)[C@@H](NC(=O)[C@H](Cc1ccccc1)NC(=O)[C@@H](NC(=O)CNC(=O)[C@H](CCC(N)=O)NC(=O)C(C)(C)NC(=O)[C@@H](N)Cc1ccc(O)cc1)[C@@H](C)O)[C@@H](C)O)C(=O)N[C@@H](Cc1ccc(O)cc1)C(=O)N[C@@H](CC(C)C)C(=O)N[C@@H](CC(=O)O)C(=O)N[C@@H](CO)C(=O)N[C@@H](CCCCN)C(=O)N[C@@H](C)C(=O)N[C@@H](C)C(=O)N[C@@H](Cc1c[nH]cn1)C(=O)N[C@@H](CC(=O)O)C(=O)N[C@@H](Cc1ccccc1)C(=O)N[C@H](C(=O)N[C@@H](CCC(=O)O)C(=O)N[C@@H](Cc1c[nH]c2ccccc12)C(=O)N[C@@H](CC(C)C)C(=O)N[C@@H](CC(C)C)C(=O)N[C@@H](CCCNC(=N)N)C(=O)N[C@@H](C)C(N)=O)C(C)C
B5: Compound 17 (peptide)
peptide: YAQGTFTSDYSIYLDEKAAKDFVEWLLSA
HELM: PEPTIDE1{Y.[Aib].Q.G.T.F.T.S.D.Y.S.I.Y.L.D.E.K.A.A.K.D.F.V.E.W.L.L.S.A.[am]}$$$$V2.0
SMILES: CC[C@H](C)[C@H](NC(=O)[C@H](CO)NC(=O)[C@H](Cc1ccc(O)cc1)NC(=O)[C@H](CC(=O)O)NC(=O)[C@H](CO)NC(=O)[C@@H](NC(=O)[C@H](Cc1ccccc1)NC(=O)[C@@H](NC(=O)CNC(=O)[C@H](CCC(N)=O)NC(=O)C(C)(C)NC(=O)[C@@H](N)Cc1ccc(O)cc1)[C@@H](C)O)[C@@H](C)O)C(=O)N[C@@H](Cc1ccc(O)cc1)C(=O)N[C@@H](CC(C)C)C(=O)N[C@@H](CC(=O)O)C(=O)N[C@@H](CCC(=O)O)C(=O)N[C@@H](CCCCN)C(=O)N[C@@H](C)C(=O)N[C@@H](C)C(=O)N[C@@H](CCCCN)C(=O)N[C@@H](CC(=O)O)C(=O)N[C@@H](Cc1ccccc1)C(=O)N[C@H](C(=O)N[C@@H](CCC(=O)O)C(=O)N[C@@H](Cc1c[nH]c2ccccc12)C(=O)N[C@@H](CC(C)C)C(=O)N[C@@H](CC(C)C)C(=O)N[C@@H](CO)C(=O)N[C@@H](C)C(N)=O)C(C)C
B6: Compound 14 (peptide)
peptide: YAQGTFTSDYSIYLEKKAAHDFVEWLLSA
HELM: PEPTIDE1{Y.[Aib].Q.G.T.F.T.S.D.Y.S.I.Y.L.E.K.K.A.A.H.D.F.V.E.W.L.L.S.A.[am]}$$$$V2.0
SMILES: CC[C@H](C)[C@H](NC(=O)[C@H](CO)NC(=O)[C@H](Cc1ccc(O)cc1)NC(=O)[C@H](CC(=O)O)NC(=O)[C@H](CO)NC(=O)[C@@H](NC(=O)[C@H](Cc1ccccc1)NC(=O)[C@@H](NC(=O)CNC(=O)[C@H](CCC(N)=O)NC(=O)C(C)(C)NC(=O)[C@@H](N)Cc1ccc(O)cc1)[C@@H](C)O)[C@@H](C)O)C(=O)N[C@@H](Cc1ccc(O)cc1)C(=O)N[C@@H](CC(C)C)C(=O)N[C@@H](CCC(=O)O)C(=O)N[C@@H](CCCCN)C(=O)N[C@@H](CCCCN)C(=O)N[C@@H](C)C(=O)N[C@@H](C)C(=O)N[C@@H](Cc1c[nH]cn1)C(=O)N[C@@H](CC(=O)O)C(=O)N[C@@H](Cc1ccccc1)C(=O)N[C@H](C(=O)N[C@@H](CCC(=O)O)C(=O)N[C@@H](Cc1c[nH]c2ccccc12)C(=O)N[C@@H](CC(C)C)C(=O)N[C@@H](CC(C)C)C(=O)N[C@@H](CO)C(=O)N[C@@H](C)C(N)=O)C(C)C

target: T1, human GIP receptor; experiment: cell-based or functional assay

Compared with B1, B2 is 4-fold higher in “EC50 (cAMP induction)” value: 0.07 nM for the first, 0.28 nM for the second.

B3 and B4 are within 1.5-fold of each other in “EC50 (cAMP induction)” value: 0.083 nM for the first, 0.084 nM for the second.

Going from B5 to B6, the “EC50 (cAMP induction)” value falls from 0.091 nM to 0.06 nM (1.5-fold).

target: T2, human glucagon-like peptide 1 receptor (human, UniProt P43220 24-463); experiment: cell-based or functional assay

B1 and B2 are within 1.5-fold of each other in “EC50 (cAMP induction)” value: 0.021 nM for the first, 0.02 nM for the second.

B3 and B4 are within 1.5-fold of each other in “EC50 (cAMP induction)” value: 0.0099 nM for the first, 0.012 nM for the second.

B5 and B6 are within 1.5-fold of each other in “EC50 (cAMP induction)” value: 0.011 nM for the first, 0.013 nM for the second.

target: T3, human glucagon receptor (human, UniProt P47871 26-477); experiment: cell-based or functional assay
T3 sequence (P47871 26-477): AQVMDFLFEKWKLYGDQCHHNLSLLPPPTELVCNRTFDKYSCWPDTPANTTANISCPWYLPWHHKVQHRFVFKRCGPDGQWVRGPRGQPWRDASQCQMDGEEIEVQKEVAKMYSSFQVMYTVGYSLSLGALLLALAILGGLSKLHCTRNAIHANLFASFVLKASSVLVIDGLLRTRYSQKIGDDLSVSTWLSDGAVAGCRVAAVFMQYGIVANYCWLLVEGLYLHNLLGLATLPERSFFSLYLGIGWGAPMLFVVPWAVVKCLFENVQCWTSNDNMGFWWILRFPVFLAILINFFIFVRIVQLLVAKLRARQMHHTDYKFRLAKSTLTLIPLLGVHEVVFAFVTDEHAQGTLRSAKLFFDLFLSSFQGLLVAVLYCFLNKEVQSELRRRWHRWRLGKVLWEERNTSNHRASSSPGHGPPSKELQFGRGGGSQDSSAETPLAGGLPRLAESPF

B1 and B2 are within 1.5-fold of each other in “EC50 (cAMP induction)” value: 0.15 nM for the first, 0.11 nM for the second.

First: B3
Second: B4
The “EC50 (cAMP induction)” value of the first is 3.2-fold higher: 0.24 nM for the first, 0.076 nM for the second.

Compared with B5, B6 is 1.6-fold lower in “EC50 (cAMP induction)” value: 0.16 nM for the first, 0.1 nM for the second.

target: T1, human GIP receptor; experiment: cell-based or functional assay; remark: another data set of the same source

B1 and B2 are within 1.5-fold of each other in “EC50 (cAMP induction)” value: 0.021 nM for the first, 0.02 nM for the second.

B3 and B4 are within 1.5-fold of each other in “EC50 (cAMP induction)” value: 0.01 nM for the first, 0.012 nM for the second.

B5 and B6 are the same in “EC50 (cAMP induction)” value: 0.013 nM for the first, 0.013 nM for the second.

target: T2, human glucagon-like peptide 1 receptor; experiment: cell-based or functional assay; remark: another data set of the same source

B1 and B2 are within 1.5-fold of each other in “EC50 (cAMP induction)” value: 0.15 nM for the first, 0.11 nM for the second.

Going from B3 to B4, the “EC50 (cAMP induction)” value falls from 0.24 nM to 0.076 nM (3.2-fold).

First: B5
Second: B6
The “EC50 (cAMP induction)” value of the first is 1.6-fold higher: 0.16 nM for the first, 0.1 nM for the second.

target: T3, human glucagon receptor; experiment: cell-based or functional assay; remark: another data set of the same source

B1 and B2 are within 1.5-fold of each other in “EC50 (cAMP induction)” value: 0.15 nM for the first, 0.11 nM for the second.

Going from B3 to B4, the “EC50 (cAMP induction)” value falls from 0.24 nM to 0.076 nM (3.2-fold).

Compared with B5, B6 is 1.6-fold lower in “EC50 (cAMP induction)” value: 0.16 nM for the first, 0.1 nM for the second.

Source: patent publication US10131702B2, “Glucagon-GLP-1-GIP triple agonist compounds” (priority 2013, dated 2018)
